Experimental data as given in US20210292393A1 (published 2021).

target: SARS-CoV-2 full length spike protein, V483A mutant (SARS-CoV-2, UniProt P0DTC2 14-1273)

Row | Binder | median fluorescence intensity, fold over isotype control [fold over isotype]
1 | antibody 260 (antibody, V domains shown) VH: EVQLVESGGGLVQPGRSLRLSCAASGFTFDYYAMHWVRQAPGKGLEWVSGISWNSGTIGYADSVKGRFTISRDNAKNSLYLQMNSLRAEDTALYYCAKDSRPSGRYYYGMDVWGQGTTVTVSS VL: not shown | 11
2 | antibody 264 (antibody, V domains shown) VH: QVHLVESGGGVVQPGRSLRLSCAASGFTLTSYAMHWVRQAPGKGLEWVALISYDGSVKKYAESVKGRITVSGDNSRNTLHLQINTLRADDTAVYYCVRGGVSGPNSFDLWGQGTMVTVSS VL: DVVMTQSPLSLPVTLGQPASISCRSSQSLEYSDGNTYVNWFQQRPGQSPRRLIYQVSNRASGVPDRFSGSGSGTDFTLQISRVEAEDVGIYYCMQGTHWPVTFGQGTKVEIK | 11.1
3 | antibody 263 (antibody, V domains shown) VH: EVQLVQSGAEVKKPGATVKISCKVSGYTFTDYYMHWVQQAPGKGLEWMGLVDPEDGETIYAEKFQGRVTITADTSTDTAYMELSSLRSDDTAVYYCTTDLAFTIFGGRRGFDPWGQGTLVTVSS VL: DIQLTQSPSFLSASVGDRVTITCRASQGISSYLAWYQQKPGKAPKLLIYAASTLQSGVPSRFSGSGSGTEFTLTISSLQPEDFATYYCQQLNSYDFGQGTRLEIK | 17.3

target: SARS-CoV-2 spike protein with D614G mutation (SARS-CoV-2, UniProt P0DTC2 14-1208)

Row | Binder | Kd [nM]
4 | anti-SARS-CoV-2 antibody 1118 (antibody, V domains shown) VH: EVQLVESGGGLVQPGGSLRLSCAASGFRFSNYEMNWVRQAPGKGLEWVSYISSTGGSIFYADSVKGRFTISRGDAKNSVYLQMNSLRAEDTAVYYCARAMYYYGSGTLDYWGQGTLVTVSS VL: DIQMTQSPSSLSASVGDRVTITCRASQSISRFLNWYQQKPGTAPKLLIYDVSSLQSGVPTRFSGSGSGTDFTLTISSLQPEDFATYYCQQSYTTPPAFGPGTRVDIK | 0.044
5 | anti-SARS-CoV-2 antibody 1081 (antibody, V domains shown) VH: EVQLVQSGAEVKKPGESLKISCKRSGYSFTTYWIGWVRQMPGKGLEWMGSIYPGDSDTRYSPSFQGQVTISADKSISTAYLQWSSLKASDTAMYYCASQEVPGYYYYMDVWGKGTTVTVSS VL: DIQMTQSPSSLSASVGDRVTITCRASQSISSYLHWYQQKPGKAPKLLIYAASSLQSGVPSRFSGSGSGTDFTLTISSLQPEDFATYYCQQTYSTHTWTFGQGTKVEIK | 0.041
6 | anti-SARS-CoV-2 antibody 1098 (antibody, V domains shown) VH: DVQLVQSGAEVKKPGESLKISCKGSGYRFTSYWIAWVRQMPGKGLEWMGIIYPGDSDTRYSPSFQGQVTISADKSISTAYLQWSSLKASDTAMYYCASQAAAGYFYYMDVWGKGTTVTVSS VL: not shown | 0.022
7 | anti-SARS-CoV-2 antibody 1193 (antibody, V domains shown) VH: EVQLVESGGGLVQPGGSLRLSCAASGFTFSSYYMNWVRQAPGKGLEWVSYISSGSSIIYYADSVKGRFTISRDNAKNSLYLQMNSLRDEDTAVYYCARDSPLRYFDWQLGGGFDYWGQGTLVTVSS VL: QSALTQPASVSGSPGQSITISCTGTSSDVGGYNYVSWYQQHPGKAPKLMIYDVSNRPSGVSNRFSGSKSGNTASLTISGLQAEDEADYYCSSYTSSSLWVFGGGTKLTVL | 0.041
8 | anti-SARS-CoV-2 antibody 1203 (antibody, V domains shown) VH: QLRLQESGPGLVKPSETLSLTCTVSGGSISSSNFYWGWIRQPPGKGLEWIGSIYYSGSTHYNPSLKSRVTVSVDTSKNQFSLKLSSVTAADTAVYYCARLTYYYDSSGFIRAEPFDYWGQGILVTVSS VL: not shown | 0.079
9 | anti-SARS-CoV-2 antibody 1091 (antibody, V domains shown) VH: EVQLVESGGGLVKPGGSLRLSCAASGFPFITYSMNWVRQAPGKGLEWVSSISRNSDYIYYADSVRGRVTISRDNAENSLYLQMHSLRAEDTAVYYCARDVVRSGNYYIPRHGMDVWGRGTTVTVSS VL: QSVLTQPPSASGTPGQRVTISCSGTSSNIGSNTVNWYQQLPETAPKLLIYGTDQRPSGVPDRFSGSKSGTSASLAISRLQSEDEADYYCATRDDSLSGPVFGGGTQLTVL | 0.019
